# Results reported in patent US6465423.
# How the values were obtained:
# [1] = target: acid-labile sub-unit (ALS) of insulin like growth factor binding protein complex (human) (UniProt P35858); assay: competition of acidified-neutralized serum with cross-linked BP-53-IGF-I tracer in the routine ALS assay
# [2] = target: endogenous BP-53 of human serum (human) (UniProt P17936); assay: DEAE-Sephadex peaks A and B mixed for 60 min at 22° C, Superose-12, BP-53 RIA
# [3] = target: IGF affinity column loaded with BP-53 (BP-53 non-covalently bound to agarose-IGF) (human) (UniProt P17936); assay: affinity chromatography of DEAE-Sephadex ALS fractions on the IGF column loaded with BP-53
# Sequence of acid-labile sub-unit (ALS) of insulin like growth factor binding protein complex (human) (P35858 28-605, one chain of several): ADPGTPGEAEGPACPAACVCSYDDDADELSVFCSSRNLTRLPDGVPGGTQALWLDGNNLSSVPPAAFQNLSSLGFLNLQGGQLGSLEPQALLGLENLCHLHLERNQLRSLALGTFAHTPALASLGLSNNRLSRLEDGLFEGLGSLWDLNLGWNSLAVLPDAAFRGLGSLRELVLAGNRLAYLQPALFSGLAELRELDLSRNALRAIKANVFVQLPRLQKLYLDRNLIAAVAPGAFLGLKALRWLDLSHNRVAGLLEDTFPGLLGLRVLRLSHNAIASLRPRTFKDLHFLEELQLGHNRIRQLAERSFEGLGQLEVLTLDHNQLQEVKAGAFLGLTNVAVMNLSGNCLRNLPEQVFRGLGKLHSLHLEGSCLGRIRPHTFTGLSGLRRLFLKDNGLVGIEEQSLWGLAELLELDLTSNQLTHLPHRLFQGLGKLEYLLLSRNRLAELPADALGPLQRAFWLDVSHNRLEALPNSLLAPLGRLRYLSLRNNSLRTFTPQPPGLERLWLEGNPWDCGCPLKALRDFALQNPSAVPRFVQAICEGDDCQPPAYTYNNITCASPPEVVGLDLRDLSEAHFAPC
# Sequence of acid-labile sub-unit (ALS) of insulin like growth factor binding protein complex (P35858 28-605, one chain of several): as above
Substance,IC50 [1] [µg/mL],concentration for full displacement [1] [µg/mL],percent of BP-53 activity shifted from 30-60K to 150K [2] [%],percent of ALS activity retained [3] [%]
endogenous BP-53 of human serum (from UniProt P17936 28-291),0.2 to 0.25,1,,
acid-labile sub-unit (ALS) of insulin like growth factor binding protein complex (from UniProt P35858 28-605),,,> 50,> 90
